Earlier results in PMC3229669.

Biological target: histone H4 N-terminal tail (UniProt P62805)

Sequence of Spt16 NT domain (O94267 1-442): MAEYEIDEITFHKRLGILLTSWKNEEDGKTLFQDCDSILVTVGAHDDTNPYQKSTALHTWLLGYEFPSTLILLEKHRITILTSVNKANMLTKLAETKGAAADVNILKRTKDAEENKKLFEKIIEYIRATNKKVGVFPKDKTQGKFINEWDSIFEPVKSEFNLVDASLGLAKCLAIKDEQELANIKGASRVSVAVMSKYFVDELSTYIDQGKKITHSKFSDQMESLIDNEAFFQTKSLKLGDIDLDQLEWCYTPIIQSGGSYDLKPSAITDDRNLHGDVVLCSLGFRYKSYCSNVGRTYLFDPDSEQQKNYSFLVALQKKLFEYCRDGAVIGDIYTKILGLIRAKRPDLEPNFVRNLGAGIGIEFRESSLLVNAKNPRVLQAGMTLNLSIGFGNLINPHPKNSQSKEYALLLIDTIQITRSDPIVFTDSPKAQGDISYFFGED

Kd: 3000 nM
Substance: Spt16 NT domain (from UniProt O94267)
